Source: PMC4111287

Target: soluble human PEX3 (reading frame from G25, C235S) (human) (UniProt P56589)
Assay: native MS; PEX3 and PEX19 mixed in equimolar concentrations (5-10 µM), overnight at 4°C in 20 mM sodium phosphate, 300 mM NaCl, 1 mM DTT, pH 8.0; nano-electrospray on a QToF I under conditions that preserve non-covalent interactions; complex analysed at 10 µM

UniProt P56589, sequence (P56589 25-373 C235S): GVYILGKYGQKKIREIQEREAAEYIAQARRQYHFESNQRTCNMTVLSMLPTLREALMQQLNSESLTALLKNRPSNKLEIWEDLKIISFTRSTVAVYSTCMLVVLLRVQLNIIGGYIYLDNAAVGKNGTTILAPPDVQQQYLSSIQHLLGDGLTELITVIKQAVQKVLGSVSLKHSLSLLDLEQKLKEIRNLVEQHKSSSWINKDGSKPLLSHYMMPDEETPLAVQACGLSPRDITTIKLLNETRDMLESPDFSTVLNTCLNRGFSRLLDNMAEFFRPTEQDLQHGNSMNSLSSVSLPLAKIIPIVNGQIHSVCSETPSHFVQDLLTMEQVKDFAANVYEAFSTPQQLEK

## full length human PEX19 with an N-terminal His-tag (from UniProt P56589 1-373) (natural protein)
  stoichiometry N: 1
